Substitutions are numbered along the chain they refer to.
B1: h0301-L0H0 (antibody, human IgG4 S228P, kappa)
heavy: not shown
light: EIVLTQSPATLSLSPGERATLSCKASQSVDYDGDNYMNWYQQKPGQAPRLLIYAASNLESGIPARFSGSGSGTDFTLTISSLEPEDFAVYYCHLSNEDLSTFGGGTKVEIKRTVAAPSVFIFPPSDEQLKSGTASVVCLLNNFYPREAKVQWKVDNALQSGNSQESVTEQDSKDSTYSLSSTLTLSKADYEKHKVYACEVTHQGLSSPVTKSFNRGEC
notes: also called Ab1; huAb 0301-L0H0
B2: h0301-L1H0 (antibody, human IgG4 S228P, kappa)
heavy: not shown
light: B1 light with E1N
notes: also called Ab4; huAb 0301-L1H0
B3: h0311-L0H1 (antibody, human IgG4 S228P, kappa, V domains shown)
VH: QVQLVQSGAEVKKPGSSVKVSCKASGYIFTDYNMHWVRQAPGQGLEWMGEINPNNGVVVYNQKFKGRVTITVDKSTSTAYMELSSLRSEDTAVYYCTRALYHSNFGWYFDSWGQGTLVTVSS
VL: EIVLTQSPATLSLSPGERATLSCKASQSVDYDGDSHMNWYQQKPGQAPRLLIYTASNLESGIPARFSGSGSGTDFTLTISSLEPEDFAVYYCQQGNEDPWTFGQGTKVEIKR
notes: also called Ab13; huAb 0311-L0H1
B4: h0302-L1H2 (antibody, human IgG4 S228P, kappa, V domains shown)
VH: QVQLVQSGAEVKKPGSSVKVSCKASGYTFSDFNIHWVRQAPGQGLEWIGYINPYTDVTVYNEKFKGRATLTSDKSTSTAYMELSSLRSEDTAVYYCASYFDGTFDYALDYWGQGTLVTVSS
VL: B3 VL with K24R, Q27E, Y31N, D32Y, D34L, H36F, G72R, G95S, N96K, D98L
notes: also called Ab11; huAb 0302-L1H2
B5: h0311-L1H2 (antibody, human IgG4 S228P, kappa, V domains shown)
VH: B3 VH with R67T, V68T, I70L
VL: B3 VL with E1D, T73A
notes: also called Ab16; huAb 0311-L1H2
B6: cAb 0302 (antibody, human IgG4 S228P, kappa)
heavy: not shown
light: DVVVTQTPASLAVSLGQRATISCRASESVDNYGLSFMNWFQQKPGQPPKLLIYTASNLESGIPARFSGGGSRTDFTLTIDPVEADDAATYFCQQSKELPWTFGGGTRLEIKRTVAAPSVFIFPPSDEQLKSGTASVVCLLNNFYPREAKVQWKVDNALQSGNSQESVTEQDSKDSTYSLSSTLTLSKADYEKHKVYACEVTHQGLSSPVTKSFNRGEC
B7: cAb 0311 (antibody, human IgG4 S228P, kappa, V domains shown)
VH: EIQLQQSGPDLMKPGASVKMSCKASGYIFTDYNMHWVKQNQGKSLEWMGEINPNNGVVVYNQKFKGTTTLTVDKSSSTAYMDLHSLTSEDSAVYYCTRALYHSNFGWYFDSWGKGTTLTVSS
VL: DIVLTQSPASLAVSLGQRATISCKASQSVDYDGDSHMNWYQQKPGQPPKLLIYTASNLESGIPARFSGSGSGADFTLTIHPVEEEDAATYYCQQGNEDPWTFGGGTRLEIKR

biological target: T1, hCSF1R ECD.506 (human, UniProt P07333 20-506); assay: SPR Biacore T100, antibody captured on anti-human IgG, hCSF1R ECD.506 as analyte, 1:1 model
T1 construct: also called human CSF1R ECD
Procedure: The kₐ, kd, and KD for binding to human CSF1R ECD was determined for each of the humanized antibodies as follows.
Binding kinetics of anti-CSF1R humanized antibodies to CSF1R ECD was determined using Biacore T100 Surface Plasmon Resonance (SPR) (GE Healthcare Life Sciences, Piscataway, N.Y.). Each of the humanized anti-CSF1R antibodies was captured on a CM5 sensor chip immobilized with anti-Human IgG antibody using the Human antibody capture kit (GE Healthcare Life Sciences, Piscataway, N.Y.) at 150 RU so that the Rmax value for hCSF1R ECD.506 (SEQ ID NO: 5) binding was 100 RU. Rmax values of less than 150 RU are recommended for accurately determining kinetic values. […] The association constant, dissociation constant, affinity, and binding capacity of each of the Fabs for human CSF1R ECD was calculated using the Biacore T100 Evaluation software package using the 1:1 binding model.

Row | Kd | koff | kon | Binder
1 | 0.35 nM | 0.00111 s⁻¹ | 3.22e+06 M⁻¹ s⁻¹ | B1
2 | 0.35 nM | 0.00115 s⁻¹ | 3.29e+06 M⁻¹ s⁻¹ | B2
3 | 0.44 nM | 0.00054 s⁻¹ | 1.22e+06 M⁻¹ s⁻¹ | B3
4 | 0.56 nM | 0.00153 s⁻¹ | 2.71e+06 M⁻¹ s⁻¹ | B4
5 | 0.4 nM | 0.000609 s⁻¹ | 1.51e+06 M⁻¹ s⁻¹ | B5

biological target: T2, cynoCSF1R ECD-Fc (cynomolgus); assay: competition ELISA, blocking of human IL34 binding to cynoCSF1R ECD-Fc
T2 construct: also called cynomolgus CSF1R ECD

Row | IC50 | Binder
6 | 0.0494 µg/mL | B6
7 | 0.0521 µg/mL | B7
8 | 0.0359 µg/mL | B1
9 | 0.0348 µg/mL | B2
10 | 0.0504 µg/mL | B3
11 | 0.541 µg/mL | B4
12 | 0.0486 µg/mL | B5

biological target: T3, human CSF1R on CSF1R (SEQ ID NO: 2)-transfected CHO cells (human, UniProt P07333 20-972); assay: cell-based or functional assay

Row | IC50, inhibition of CSF1-induced CSF1R phosphorylation (head prints 'Human CSF1/Human CSF1R ECD IC50') | IC50, inhibition of IL34-induced CSF1R phosphorylation (head prints 'Human IL34/Human CSF1R ECD IC50') | Binder
13 | 0.264 µg/mL | 0.351 µg/mL | B6
14 | 0.577 µg/mL | 0.994 µg/mL | B7
15 | 1.03 µg/mL | 0.433 µg/mL | B1
16 | 6.15 µg/mL | 0.378 µg/mL | B2
17 | 0.291 µg/mL | 0.343 µg/mL | B3
18 | 0.598 µg/mL | 0.495 µg/mL | B4
19 | 0.419 µg/mL | 0.578 µg/mL | B5

biological target: T3, human CSF1R on CSF1R (SEQ ID NO: …); assay: cell-based or functional assay; remark: another data set of the same source

Row | CSF1 blocking IC50 (ligand-induced CSF1R phosphorylation in CHO cells) | IL34 blocking IC50 (ligand-induced CSF1R phosphorylation in CHO cells) | Binder
20 | 0.305 µg/mL | 0.341 µg/mL | B1
21 | 0.213 µg/mL | 0.242 µg/mL | B2
22 | 0.127 µg/mL | 0.338 µg/mL | B3

biological target: T3, human CSF1R on CSF1R (SEQ ID NO: …); assay: cell-based or functional assay; remark: another data set of the same source

Row | IC50 (read off the curve), CSF1-induced CSF1R phosphorylation | Binder
23 | ~0.3 µg/mL | B6
24 | ~0.6 µg/mL | B4

biological target: T4, mCSF1R ECD-Fc (mouse); assay: ELISA, plate coated with mCSF1R ECD-Fc, detection anti-human kappa-HRP, A450
T4 construct: also called mouse CSF1R ECD
Procedure: (§1) Ninety-six well clear-bottom ELISA plates were coated overnight with 1 μg/ml recombinant hCSF1R ECD.506-Fc (SEQ ID NO: 6; FivePrime Therapeutics) or Human M-CSF R Fc Chimera (R&D Systems) in PBS. The next morning, wells were washed four times with 0.05% Tween20 in PBS (PBST) and blocked with Blocker-Blotto (Pierce). Fifty μl of 0.5× serial dilutions of the humanized antibody or parental chimeric antibody, beginning with 2000 ng/ml, diluted 1:1 in Blocker-Blotto were added to the CSF1R-coated wells. After incubation at room temperature (RT) for 90 min, wells were washed four times with PBST, and a 1:5000 dilution of a peroxidase-conjugated Goat anti-Human kappa Light chain antibody (Sigma) in Blocker-Blotto was added to each well. After incubation at RT for 60 min, wells were washed four times with PBST, and 50 μl o-phenylenediamine dihydrochloride peroxidase substrate (Sigma) was added to each well. After incubation at RT for 30 min, A450 values of each well were read directly on a SpectraMaxPlus spectrophotometer with SoftMaxPro software (Molecular Devices).
(§2) The binding curve for each humanized antibody binding to mouse CSF1R ECD was determined as described above for human CSF1R, except the wells of the clear-bottom ELISA plates were coated overnight with 2 μg/ml recombinant mCSF1R ECD-Fc (FivePrime Therapeutics, SEQ ID NO: 93).

Row | binding result | Binder
25 | no binding (tested: 2000 ng/ml) | B6
26 | no binding (tested: 2000 ng/ml) | B7
27 | no binding (tested: 2000 ng/ml) | B1
28 | no binding (tested: 2000 ng/ml) | B2
29 | no binding (tested: 2000 ng/ml) | B3
30 | no binding (tested: 2000 ng/ml) | B4
31 | no binding (tested: 2000 ng/ml) | B5

biological target: T5, hCSF1R ECD.506-Fc (human); assay: ELISA, plate coated with human CSF1R ECD-Fc
T5 construct: also called human CSF1R ECD-Fc fusion protein; human CSF1R ECD
Procedure: as §1

Row | EC50 | Binder
32 | 0.0159 µg/mL | B6
33 | 0.0176 µg/mL | B7
34 | 0.0134 µg/mL | B1
35 | 0.0134 µg/mL | B2
36 | 0.0131 µg/mL | B3
37 | 0.0221 µg/mL | B4
38 | 0.0133 µg/mL | B5

biological target: T2, cynoCSF1R ECD-Fc; assay: competition ELISA, blocking of human CSF1 binding to cynoCSF1R ECD-Fc
Procedure: The humanized antibodies, along with the parental chimeric antibodies (cAbs), were tested for their ability to block human CSF1 binding to human and cynomolgus CSF1R ECD, as follows.
Recombinant Human CSF1 (M-CSF; R&D Systems) was biotinylated using an NH₂-Biotin Labeling Kit (Dojindo Molecular Technologies). One hundred μl of 1 μg/ml biotinylated CSF1 in PBST/0.1% BSA was added to the wells of Reacti-Bind Streptavidin coated plates (Pierce) pre-blocked with SuperBlock blocking buffer (Pierce) according to the manufacturer's instructions. Fifty μl of 0.5× serial dilutions of the humanized antibody or parental chimeric antibody, beginning with 2000 ng/ml, was incubated with 50 ng/ml hCSF1R ECD.506-Fc (SEQ ID NO: 6; FivePrime Therapeutics) or 50 ng/ml cynoCSF1R ECD-Fc (FivePrime Therapeutics, SEQ ID NO: 8, but without the 19 amino acid leader sequence) in 100 μl PBST/0.1% BSA for 90 min at RT, after which the admix was transferred to one or more wells of a ligand-coated plate. After 90 min at RT, wells were washed with PBST, and a 1:5000 dilution of an Fc-fragment-specific peroxidase-conjugated goat anti-human IgG (Jackson Immuno Research) in PBST/0.1% BSA was added to each well. After incubation at RT for 60 min, wells were washed with PBST/0.1% BSA, and o-phenylenediamine dihydrochloride peroxidase substrate (Sigma) was added to each well. After incubation at RT for 30 min, A450 values of each well were read directly on a SpectraMaxPlus spectrophotometer with SoftMaxPro software (Molecular Devices).

Row | IC50 | Binder
39 | 0.0331 µg/mL | B6
40 | 0.0435 µg/mL | B7
41 | 0.0276 µg/mL | B1
42 | 0.0255 µg/mL | B2
43 | 0.0325 µg/mL | B3
44 | 1.08 µg/mL | B4
45 | 0.0308 µg/mL | B5

biological target: T2, cynoCSF1R ECD-Fc; assay: ELISA, plate coated with cynoCSF1R ECD-Fc
Procedure: as §1
as §2, with “cynomolgus” for “mouse”, “cynoCSF1R” for “mCSF1R”, “8, but without the 19 amino acid leader sequence).” for “93).”

Row | EC50 | Binder
46 | 0.0173 µg/mL | B6
47 | 0.0201 µg/mL | B7
48 | 0.0151 µg/mL | B1
49 | 0.0119 µg/mL | B2
50 | 0.0216 µg/mL | B3
51 | 0.172 µg/mL | B4
52 | 0.0203 µg/mL | B5

biological target: T3, human CSF1R on CSF1R (SEQ ID NO: …); assay: cell-based or functional assay; remark: another data set of the same source

Row | IC50 (read off the curve), IL34-induced CSF1R phosphorylation | Binder
53 | ~1 µg/mL | B7
54 | ~0.4 µg/mL | B3
55 | ~0.6 µg/mL | B5
